Measured values from patent publication US20230047413A1 (Janssen / Centocor, published 2023).
Several values for one entry are separate records, joined by “and”; a condition that tells them apart may be missing. Equal values may be shown once. Non-standard residues stand in square brackets, D forms with d. *: point of attachment. Biotin = O=C1N[C@H]2[C@H](CS[C@H]2CCCCC(=O)*)N1; pT = C[C@@H](OP(=O)(O)O)[C@H](N)C(=O)O; pS = N[C@@H](COP(=O)(O)O)C(=O)O; dPEG4 = PEG4 moiety

Legend:
Peptide-11 = biological target: T1, Peptide-11 (human); experiment: SPR ProteOn, peptide captured, Fab as analyte
T1 peptide: {Biotin-dPEG4}-SPGTPG[pS]RSR[pT]P[pS]LPTPPT-NH2
Protocol: (§1) The binding affinity of PT3 Fab towards each of the fourteen tau phosphopeptides shown in Table 6 was assessed by surface plasmon resonance (SPR) using a Bio-Rad ProteOn XPR36. Peptides were synthesized by standard chemical methods (New England Peptide) with short-chain biotin and a PEG4 moiety at the N-terminus. Biotinylated peptide was captured on a neutravidin-coated NLC biosensor chip and PT3 Fab was flowed over the surface to measure kinetic parameters.
(§2) All experiments were performed at 25° C. using phosphate buffered saline, pH 7.4, 0.005% Tween 20 (PBST) as both running buffer and sample dilution buffer. Prior to running samples, the NLC chip was conditioned by running PBST over the chip surface for 1 h. Approximately 5-10 RU of peptide was captured on the chip surface by diluting peptide to 10 ng/mL in PBST and injecting over the flow channels at 30 μL/min for 100 s. Serial dilutions of PT3 Fab (1.1-90 nM) were analyzed and, with the exception of Peptide-8, each concentration was measured in duplicate. After capture of peptides, the antibody titration was injected at 60 μL/min for 3 minutes (association phase), followed by 300 s of buffer only (dissociation phase).
(§3) The data were double referenced by subtraction of the interspot response and the curves generated by the buffer-only injection. The chip surface was regenerated using a single injection of 0.85% phosphoric acid at 30 μL/min for 100 s contact time, followed by four injections of running buffer before the next antibody titration injection. The data processing and kinetic analysis were done using the instrument software. The data were analyzed using a simple Langmuir 1:1 binding model.

Peptide-5 [1] = biological target: T2, Peptide-5 (human, phosphoserine 210, phosphoserine 214, phosphothreonine 217 (tau 2N4R numbering); SCBiot and dPEG4 at the N-terminus; amide at the C-terminus); experiment: SPR ProteOn, peptide captured, Fab as analyte
Protocol: as §1, §2, §3

Peptide-7 [2] = biological target: T3, Peptide-7 (human, phosphothreonine 212, phosphoserine 214 (tau 2N4R numbering); SCBiot and dPEG4 at the N-terminus; amide at the C-terminus); experiment: SPR ProteOn, peptide captured, Fab as analyte
Protocol: as §1, §2, §3

Peptide-4 [3] = biological target: T4, Peptide-4 (human, phosphoserine 210, phosphothreonine 217 (tau 2N4R numbering); SCBiot and dPEG4 at the N-terminus; amide at the C-terminus); experiment: SPR ProteOn, peptide captured, Fab as analyte
Protocol: as §1, §2, §3

Peptide-6 = Peptide-6 (human, phosphothreonine 217 (tau 2N4R numbering); SCBiot and dPEG4 at the N-terminus; amide at the C-terminus); experiment: SPR ProteOn, peptide captured, Fab as analyte
Protocol: as §1, §2, §3

Peptide-2 [4] = biological target: T5, Peptide-2 (human, phosphothreonine 212, phosphothreonine 217 (tau 2N4R numbering); short chain biotin (SCBiot) and dPEG4 at the N-terminus; amide at the C-terminus); experiment: SPR ProteOn, peptide captured, Fab as analyte
T5 construct: also called pT212/pT217-tau peptide (Peptide-2)
Protocol: as §1, §2, §3

Peptide-1 [5] = biological target: T6, Peptide-1 (human, phosphothreonine 212, phosphoserine 214, phosphothreonine 217 (tau 2N4R numbering); short chain biotin (SCBiot) and dPEG4 at the N-terminus; amide at the C-terminus); experiment: SPR ProteOn, peptide captured, Fab as analyte
T6 construct: also called tau peptide phosphorylated at T212/S214/T217
Protocol: as §1, §2, §3

Peptide-3 [6] = biological target: T7, Peptide-3 (human, phosphoserine 214, phosphothreonine 217 (tau 2N4R numbering); SCBiot and dPEG4 at the N-terminus; amide at the C-terminus); experiment: SPR ProteOn, peptide captured, Fab as analyte
Protocol: as §1, §2, §3

Peptide-2 [7] = biological target: T5, Peptide-2; experiment: SPR ProteOn, peptide captured, Fab as analyte; range of n=2; Peptide-2 (pT212/pT217); Table 6 run; lower end of n=2 range
Peptide-5 [8] = biological target: T2, Peptide-5; experiment: SPR ProteOn, peptide captured, Fab as analyte; range of n=2
Protocol: as §1, §2, §3

Peptide-4 [9] = biological target: T4, Peptide-4; experiment: as above
Protocol: as §1, §2, §3

Peptide-2 [10] = biological target: T5, Peptide-2; experiment: as above
Protocol: as §1, §2, §3

Peptide-1 [11] = biological target: T6, Peptide-1; experiment: as above
Protocol: as §1, §2, §3

Peptide-5 [12] = biological target: T2, Peptide-5; experiment: SPR ProteOn, peptide captured, Fab as analyte; range of n=2; Peptide-5 (pS210/pS214/pT217); upper end of n=2 range
Protocol: as §1, §2
(§4) The data were double referenced by subtraction of the interspot response and the curves generated by the buffer-only injection. […] The data were analyzed using a simple Langmuir 1:1 binding model.

Peptide-3 [13] = biological target: T7, Peptide-3; experiment: SPR ProteOn, peptide captured, Fab as analyte; Peptide-3, phosphorylated at 214/217; n=3
Protocol: as §1, §2, §4

Peptide-7 [14] = biological target: T3, Peptide-7; experiment: SPR ProteOn, peptide captured, Fab as analyte; range of n=2; lower end of n=2 range
Protocol: as §1, §2, §3

T4 sequence (peptide, as listed by the source): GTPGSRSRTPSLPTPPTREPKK

B1: PT3 Fab (B187) (Fab, V domains shown)
VH: EVKLVESGGDLVKPGGSLKLSCAASGFTFSSYAMSWVRQNPEKRLEWVASISKGGNTYYPNSVKGRFTISRDNARNILYLQMSSLRSEDTALYYCARGWGDYGWFAYWGQVTLVTVSA
VL: DIKMTQSPSSMYASLGERVTITCKASQDINRYLNWFQQKPGKSPKTLIYRANRLLDGVPSRFSGSGSGQDYSLTISSLDYEDMGIYYCLQYDEFPLTFGDGTKLELK
notes: Chimeric Fab: mouse variable regions, human IgG1/kappa constant region, 6xHis tag at the C-terminus of the heavy chain; also called mouse parental Fab of PT3
- binding result (Peptide-11): no binding (tested: 1.1-90 nM)
- koff (Peptide-5 [1]): 0.00584 s⁻¹
- kon (Peptide-5 [1]): 704000 M⁻¹ s⁻¹
- koff (Peptide-7 [2]): 0.00555 s⁻¹
- kon (Peptide-7 [2]): 422000 M⁻¹ s⁻¹
- koff (Peptide-4 [3]): 0.00627 s⁻¹
- kon (Peptide-4 [3]): 968000 M⁻¹ s⁻¹
- koff (Peptide-6): 0.00616 s⁻¹
- kon (Peptide-6): 541000 M⁻¹ s⁻¹
- koff (Peptide-2 [4]): 0.000168 s⁻¹
- kon (Peptide-2 [4]): 764000 M⁻¹ s⁻¹
- koff (Peptide-1 [5]): 0.00028 s⁻¹
- kon (Peptide-1 [5]): 1.27e+06 M⁻¹ s⁻¹
- koff (Peptide-3 [6]): 0.00547 s⁻¹
- kon (Peptide-3 [6]): 1.04e+06 M⁻¹ s⁻¹
- Kd (Peptide-2 [7]): 0.09 to 0.45 nM
- Kd (Peptide-5 [8]): 6.6 to 10.8 nM
- Kd (Peptide-4 [9]): 6.48 to 6.71 nM
- Kd (Peptide-2 [10]): 0.09 to 0.45 nM
- koff (Peptide-2 [10]): 9.1e-05 s⁻¹
- koff (Peptide-1 [11]): 0.000236 s⁻¹ and 0.000324 s⁻¹
- kon (Peptide-1 [11]): 870000 M⁻¹ s⁻¹ and 1.67e+06 M⁻¹ s⁻¹
- Kd (Peptide-5 [12]): 6.6 to 10.8 nM
- Kd (Peptide-3 [13]): 5.57 nM
- koff (Peptide-7 [14]): 0.00549 s⁻¹
- kon (Peptide-7 [14]): 357000 M⁻¹ s⁻¹
